In IntAct's records for PubMed 18502764:

Molecular target: ehd2_mouse Ehd2 (UniProt Q8BH64)
UniProt Q8BH64, sequence (Q8BH64 whole entry): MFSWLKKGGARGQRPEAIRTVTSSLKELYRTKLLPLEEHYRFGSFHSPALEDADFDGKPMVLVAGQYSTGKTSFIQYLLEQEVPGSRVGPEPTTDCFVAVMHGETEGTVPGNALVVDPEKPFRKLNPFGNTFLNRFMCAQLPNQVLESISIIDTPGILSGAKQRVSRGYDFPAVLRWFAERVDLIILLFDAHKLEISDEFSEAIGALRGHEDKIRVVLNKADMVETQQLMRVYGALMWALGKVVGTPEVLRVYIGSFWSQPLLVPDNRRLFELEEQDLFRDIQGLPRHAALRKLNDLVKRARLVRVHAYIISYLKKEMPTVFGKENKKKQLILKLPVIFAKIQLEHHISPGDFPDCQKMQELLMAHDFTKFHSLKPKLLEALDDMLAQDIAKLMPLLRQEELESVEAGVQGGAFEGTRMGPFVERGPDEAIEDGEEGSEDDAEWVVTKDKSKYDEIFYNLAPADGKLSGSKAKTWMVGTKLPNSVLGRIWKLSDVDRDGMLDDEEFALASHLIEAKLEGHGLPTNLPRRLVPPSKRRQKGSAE

Substance: Myoferlin (Homo sapiens), Q9NZM1 N238C
- effect of a mutation on the interaction: decreasing interaction
